The target of this assay is T1, GST-Nup358-MC2 (2012–2771 aa) (human, UniProt P49792 2012-2771).
T1 construct: also called GST-tagged Nup358-MC2; source: E. coli BL21 CodonPlus RIL (DE3), purified (Glutathione Agarose Beads)
The experiment in a line: co-IP; in vitro: 2 µM MBP protein incubated with 1.5 µM GST-Nup358-MC2 in 25 mM Tris-HCl pH 7.4, 150 mM NaCl, 5% glycerol, 0.01% Tween20, 2 h, 4 °C; MBP proteins immunoprecipitated with anti-MBP antibody on Protein G Dynabeads; western blot for Nup358-MC2. As to conditions: both partners purified. In general terms: A western blot detects proteins with antibodies after separation by electrophoresis.

T1 sequence (P49792 2012-2771): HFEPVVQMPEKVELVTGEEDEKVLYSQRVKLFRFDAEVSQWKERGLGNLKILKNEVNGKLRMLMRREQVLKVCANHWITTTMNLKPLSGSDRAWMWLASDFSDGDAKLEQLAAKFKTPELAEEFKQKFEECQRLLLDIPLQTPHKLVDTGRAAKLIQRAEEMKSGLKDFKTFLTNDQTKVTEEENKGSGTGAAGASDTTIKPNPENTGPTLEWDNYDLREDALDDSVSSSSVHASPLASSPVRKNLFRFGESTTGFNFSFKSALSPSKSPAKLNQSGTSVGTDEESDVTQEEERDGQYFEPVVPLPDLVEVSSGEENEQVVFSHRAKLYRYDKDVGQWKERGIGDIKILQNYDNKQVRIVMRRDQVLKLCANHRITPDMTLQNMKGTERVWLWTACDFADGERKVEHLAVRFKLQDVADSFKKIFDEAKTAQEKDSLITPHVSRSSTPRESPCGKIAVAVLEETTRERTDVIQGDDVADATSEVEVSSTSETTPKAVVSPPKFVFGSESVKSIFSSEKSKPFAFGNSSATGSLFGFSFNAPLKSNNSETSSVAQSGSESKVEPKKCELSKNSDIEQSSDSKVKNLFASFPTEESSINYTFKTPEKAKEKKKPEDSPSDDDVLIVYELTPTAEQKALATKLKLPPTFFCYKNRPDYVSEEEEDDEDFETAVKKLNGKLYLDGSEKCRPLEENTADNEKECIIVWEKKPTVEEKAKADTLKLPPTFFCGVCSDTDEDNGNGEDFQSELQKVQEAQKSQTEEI

B1: MBP-PTPIP51 (36–470 aa) (domain or fragment, UniProt Q96TC7 36-470, looked up)
chain: KRTQRHGRSQSLPNSLDYTQTSDPGRHVMLLRAVPGGAGDASVLPSLPREGQEKVLDRLDFVLTSLVALRREVEELRSSLRGLAGEIVGEVRCHMEENQRVARRRRFPFVRERSDSTGSSSVYFTASSGATFTDAESEGGYTTANAESDNERDSDKESEDGEDEVSCETVKMGRKDSLDLEEEAASGASSALEAGGSSGLEDVLPLLQQADELHRGDEQGKREGFQLLLNNKLVYGSRQDFLWRLARAYSDMCELTEEVSEKKSYALDGKEEAEAALEKGDESADCHLWYAVLCGQLAEHESIQRRIQSGFSFKEHVDKAIALQPENPMAHFLLGRWCYQVSHLSWLEKKTATALLESPLSATVEDALQSFLKAEELQPGFSKAGRVYISKCYRELGKNSEARWWMKLALELPDVTKEDLAIQKDLEELEVILRD
notes: PTPIP51 (RMDN3), residues 36-470, cloned into pMAL-c2; source: E. coli BL21 Star (DE3), purified (Ni-NTA, Amylose resin); not shown: MBP, N-terminal, kept
Take B1: the binding result is given as “binds”.
